Assay: soluble on expression in E. coli; label from the status in PepcDB or PDB records

With “MAHHHHHHMDYNVSTAAVVLDCGSFHSRAGFGGEKGPRLDVPTLVGYPRHRSIAMAAGMNEQEVGEEALLKQGILDVHHPIRNGFINDWGDVEKLWSHLFFNELRVSPETHCFLLTQPVNTPAAQRERTLEIMMETFHAHSLYLGTSQVLSLYSYGLTTGLVVDSGKDVTHAVPIHEGYALVRHVTQSPVAGAALTRYLGGLLREQGYALGTATEQELLNGAKEDLCYVRPRAHVQRGAVSDIYTPASGTSAGVSPAAASAASRRSTQLTGGIKGSADSASSATATTAVTAKESFMESAAEKHLDVDGGLTPTAVMGATEDFLLPDGQRIPLAAERYDTAEVLFNYSLLALMDSNGKDSSTYEPRCKVRTDMGDLFRPSFEKGISWLPFAAVNNCEAALRPQLYANMVLAGGSTSFPGLKARLESEVRQLYRESHPSEAVVPIQVRDMPCRTYSTWLGGSMLAQTAVFQHLVVSRKEYEEEGARVIHYKSL” as the sequence, how does the “soluble on expression in E. coli” value read?
Its value is “not soluble”.

With “MAHHHHHHMEAAAERCFQEGDLKGAACLYANLMVLYPQYTKMARMCRVLSNPLDVPLPYRYADVVEALLDPCVTYQTLFGTDAPPSVVRKAFQGWTLLVHPDKNPYPKAADAFNRLVAFKAAAMGTVDEGPPNAGGVNSKSSCRGNVRNRQRCTKRHGSANRANQSNQHSQLGDEIDMSLYELKKVQVTLKSLKRKNVDDSELPPLSAFLRPGGGARSRGGVDHSNNTKGSVPTPETQEGGSASLDESIPTSPRSCTADTACEPGLSQTIEAQLRSSEGATDAPYVLSELTPQQNEVVRGGKGLEGENTEEPLGLPTAGGHMQQYATNRNVGEVDNGSRVSLEADDSVQGPAKGIQNPDALPRRRGKHVDRLEGTCTGEFTQQSNQNSTCDTSSSEGLHSTTFNEDVPLVELAKLGIRELFDGIQKKINRDPIRLNCDLSFATYTRDKQKEVNEASVQSNDET” as the sequence, how does the “soluble on expression in E. coli” value read?
The value was “not soluble”.

With “MAHHHHHHMEAKAQAYLEKLSNSLQAAGRTATADVLKRAKEEFERSLWCEMTDDLLLAVRDPLVLESAYELHENVLKVTRMDMSPTAYVKLLHYICFCPNSTLQKALDLLNGAVVALSTSSEQGENMANCIRALLLLDSYNDKSSPAGTAASEASRILDKVESFIHSKQMHEVEPVLAALHCQARGKDYEIRQQYTKYYSNAFETVKSAERAEMPIIESDLLSLAYKAALSALLSEEIYNFGKFLNERHFTERLADSVQHAWILEWLRLCNDGKVEEFEQYAVAHKAEMAASPILSEFFPSITKKVRLMALLHLVFYTPFNERTFTFDVIARRCAVDEERVEPLLLAALAQGIIMGKIDGLTQEVHITWVEPRVLSLQEVKELAVHVSRWKEKTLGLMQCMKEAAQETHN” as the sequence, how does the “soluble on expression in E. coli” value read?
Its value is “soluble”.

Which “soluble on expression in E. coli” value does the source give for “MAHHHHHHMEISSISETDKNAITRLLSSDLSRTVARHAIIVLHYFRTISDEDLPIDVLLGGCVLYAVKQRQASNANYFLRECLERVKESDIVGFELLLVQVVRHNVLLIETCLRSVFHEVLLENPVAGLDRERTIKVCLHLISFLYRTSWCLFPESAARGAFLVASEKCEIKLGKLSSAFDGPMVKHIAKYLRDQFWN” here?
The value was “not soluble”.

With “MAHHHHHHMEVEGTKERARGVTTFTRADLELREAAEDHRALLAEPWASHALRKGYSGREEHTKWITETWEAFERRKEDQKLYLERHDLCLQYKAAQLSETRRLSEQKSAALVEKMMALEAARKGALLQSRHFLFVDYYDYQQFLFRNQRSFVEDEEKLLRCKLSETEDDLMCLLVIQWHLSSHLHAAREKERVEEEAAAERLREFQYRQKLEEERLREEQRIAQEKEASQAEKEQAELEKRLERKRRDAERRAKVRAEREQRRAQE” as the sequence, how does the “soluble on expression in E. coli” value read?
The value was “not soluble”.

With “MAHHHHHHMFLLCRTNLAKKIKDKIPYGVKQSQNYKDAKKQERLALEANRKLKESRGMLLDGKKNLFMCLRQNSDINWYRAGQILKHLEIHQRAKPDITPSLREKITNIANFVKKGR” as the sequence, how does the “soluble on expression in E. coli” value read?
Its value is “soluble”.

With “MAHHHHHHMFMCRVHARARYLYILQNGSVEEMTALLTKLRAAVPSERLIIEHRPQNIGYAAAVNEGYRVALQKPHAEVPFIGVFNCDVYFERRYFGRYIPVVYKMLAPDAARIRALEEVVEQEERAARAAGRQTLRASVATTPGLSISMLLPDRIRYSSFAEQQDEFKGHVGMFYYETKSMCAFLVSRLALLVGGFLDENFYPAYFEDYDWQFRLANLGFKTFTGSSAQFGGFFHRMGGNIRVINKGPAGKSISYDMAAIRVERMLNAKPGIDYGETKWAWHREALVAMSATPFPQLGFIVPLDVWVLDAARHQLIIDIGTGRRPSVEMSNTYNVSLLSSLRRFALADGKDFWGSGIITTEPDWRK” as the sequence, how does the “soluble on expression in E. coli” value read?
Its value is “not soluble”.

With “MAHHHHHHMFMVDTDGSAISYHIPVSPFVPLQHDKIDVTTVNRLANFGMRFAMEHGWCYNRHSGDAHSNYASEAVEEGYVESGEDVTVFFAGVDVELVGEFPKFDGKITPASVFFLGQFWISHVGKSSFGVYGKIFRYEAADEKNKFPIGVFKLTGVNVSKKSRRPVPIPKERAEMLLETMRRHQLNTSLPLVVRIDVADFLSRSGLFTDTTYCKLVDKMATYASVTPLTVTYRREFHIRQSDIDFNRHVNQMALIQFVINTFRSALLDQTTVFPRLLDVGVDAIVGDLLLRRLHIDYIRETPMGHQSVAVALFFAEDSSRDAVIASTPESRGNQLAELCFLAQGIPGDGSPSYIAAVGKLYFFC” as the sequence, how does the “soluble on expression in E. coli” value read?
Its value is “not soluble”.

Which “soluble on expression in E. coli” value does the source give for “MAHHHHHHMGGAIYNAVNIAEIVKRRIAGLHQITELGSELVRDEYEPIDRTQNPENVVVERKVSTILITLSRNCLDKSNPGYQEPIADSEVTEQERRDPNMSRRGGRGGIRGGRGGSRGGRGGSRGGRGGSRGGRGVAAIDRRDDREN” here?
Its value is “not soluble”.

With “MAHHHHHHMGKHIRILKNQYLQFMSKRCIQSKAAFNICGKINVENPIVELDGDEMTRIIWKDIKEKLILPYVNLKIKYFDLSIENRDKTNDQVTIEAAEEIKKTSVGIKCATITPDAARVKEFNLKEMWKSPNGTIRNILDGTVFRTPILIKNIPKLVPNWKKPIVIGRHAYADQYKQKSLKIEKSGKFEIVFTPDDNSQVLRETVFHFKSPGVCLGMYNTEESIRNFALSCFQYALDLKMPVYMSTKSTILKIYDGLFKDIFDEIYEKQFKKSFEQHNLWYEHKLIDDMVAQVLKSEGGFLWACKNYDGDIQSDAVAQGYGSLGLMSSVLLCPDGVTCVSEAAHGTVTRHYRAYQKGEKTSTNPIASIFAWTKGLEHRAKLDKNDNLKQFCYALEKACIETVEDGLMSKDLAGCIKGIKNVTEKDYIFTQDLINAINEKLKLKILQNQSKNDPQATSYKLKNDNWNFYAPQEHST” as the sequence, how does the “soluble on expression in E. coli” value read?
The value was “not soluble”.

For “MAHHHHHHMGLEIFEIDTSTPHTGVVIDGTTACREANSGWVTLRAKTPLSAGQCQWAMKVIDQGEGNDGSGLMMGLLPRLNSQQEVAMGSKYISELGGWCLSRAGDSYGCWKCDKMPFSTGCVVEFDWDAASRTLYIVSGKRKASGHIPNVSEADVVYPAFSMFYLNQKLAFV”, which “soluble on expression in E. coli” value is on record?
Its value is “soluble”.

Which “soluble on expression in E. coli” value does the source give for “MAHHHHHHMGNKLCCINNDLQNSKSSIDIYKYDPREIYGDYDDWTLESWIDKYKNGNSIKVAFPDGNEIQCHFKIFLKERCFELSLDNKVRVIKFNDINCILHRNSCESLLESEQNLLKSPKVIGIRLISTLKAIAFAMDSPGEARMFYEFIEKYCLNG” here?
Its value is “not soluble”.

With “MAHHHHHHMGTLEAQTQGPGSMAIDPNSIGAVTEPMLFEWTDRDTLLYAIGVGAGTGDLAFTTENSHGIDQQVLPTYAVICCPAFGAAAKVGTFNPAALLHGSQGIRLHAPLPAAGKLSVVTEVADIQDKGEGKNAIVVLRGRGCDPESGSLVAETLTTLVLRGQGGFGGARGERPAAPEFPDRHPDARIDMPTREDQALIYRLSGDRNPLHSDPWFATQLAGFPKPILHGLCTYGVAGRALVAELGGGVAANITSIAARFTKPVFPGETLSTVIWRTEPGRAVFRTEVAGSDGAEARVVLDDGAVEYVAG” as the sequence, how does the “soluble on expression in E. coli” value read?
The value was “soluble”.

For “MAHHHHHHMGTLEAQTQGPGSMENKEKIYEGKAKIIFATLNPLEVIQHFKDEITAFNNKKAAIIHEKGILNNYISSFLMKKLIDKGIKTHFISLLNQREQLVKKITIIPIEVVIRNLAAGNFSKRFQIADGTPFKSPIIEFYYKNDELSDPMVSEGHILSFQWLTNQELEKIKILSLKINNILSELFFNVGIKLVDFKLEFGKLHNDEQSDLFLADEISPDTCRLWDISTNKRLDKDRYRLNLGNVIEGYREVAHKLNAIPNL”, which “soluble on expression in E. coli” value is on record?
The value was “soluble”.

For “MAHHHHHHMGTLEAQTQGPGSMKLLFVCLGNICRSPAAEAVMKKVIQNHHLTEKYICDSAGTCSYHEGQQADSRMRKVGKSRGYQVDSISRPVVSSDFKNFDYIFAMDNDNYYELLDRCPEQYKQKIFKMVDFCTTIKTTEVPDPYYGGEKGFHRVIDILEDACENLIIKLEEGKLIN”, which “soluble on expression in E. coli” value is on record?
The value was “soluble”.

For “MAHHHHHHMGTLEAQTQGPGSMSGDRDDPRYPYPKDDAELRRRLTPMQYEVTQHAATEPPFTGEYTDTEDAGIYHCVVCGTALFESGAKYHSGCGWPSYFKPIDGEVIDEKMDYTHGMTRVEVRCNQCGAHLGHVFEDGPRDKTGLRYCINSAALNFEAKPERK”, which “soluble on expression in E. coli” value is on record?
The value was “soluble”.

With “MAHHHHHHMGYTRERTNRHFFVARANAFFSRLPIARVQRSLAMEAVREGRMRPWKYTKEQILGAPVTCNFEYNPRPVRLIGTVMDAHTEETSIKGGLKVYARNEETNMMLWIPPGNPKLRHEVTSTKGSFQHYLDERDKWDEAWITGRARMK” as the sequence, how does the “soluble on expression in E. coli” value read?
Its value is “not soluble”.

With “MAHHHHHHMHNSVPASNTCSPFREETVSKRGKRSRGTGGDDKITRGTCSQPFSVITLPPGKLLEWLVCSPCRVYDVNLPRSRNNDNNISSLQCAVLPNFFVEYGGRSYSCVAKVCKPQLRKVLLRALAAVRQEMGSVDDIPHDSLLVVAVSPINAFSSECIHDASRTAMPRAREGCKIVGLCVARELSAPHRMHCESNWSHEKSEASGVGAAVQEGLGDCWEEDATRVGGTNNVRKAFCGVQLVWVADCYRRHGVAKVLVDTARRHISYGFEVPVERVAFSEPTSLGKLFAKSYSGRPDFLIF” as the sequence, how does the “soluble on expression in E. coli” value read?
Its value is “not soluble”.

Which “soluble on expression in E. coli” value does the source give for “MAHHHHHHMHRQTAALQGSTVPAFCELLHSRGEAWLGLLGAALALPVHNATADGPSPNSFATPPSCSPSDAPALSEACSRLLSTYFIAAKAQCVEGADASMMKTLVKLTLAHTEWRTRLAMALPQRTGHPTAASSPTRAVTALIDAVAAVGLCDATLHFFTAKTLLGECVFRLLESEAWPTWAPEYCSAPLPQQAEHGVSGAFVHGEGGEPPDWQRLYAEVSHRTRLVPASMHTTEPPSPAFSILQLAQDLQDHLERTVQQSHLALSFTEGGV” here?
Its value is “not soluble”.

Which “soluble on expression in E. coli” value does the source give for “MAHHHHHHMIENLQNCKKLRLLELGYNKIRMIENIEHLTNLEELWLGKNKIEQINLPYLPKLKKLSVQHNRLTDICEKSIKNILCVEELYISYNKINHIIDTFKDLKHLKVFDLSYNEINNISICSYLKSLEELWLNNNNIDNLEMIKKLSTIENLKTLYLEKNKIQDNLKENYRKTIIHILPQLKQLDALPIPSSPTLQK” here?
The value was “not soluble”.

For “MAHHHHHHMIFVERQTDTENAAYLLAKMLGIHIRNIGMIHGGMQQRQRDYIMNGFKHSQTRILVATDVASRGIDFPDVTCVVNFIAPKSIDRYCHRIGRTGRAGRTGDSFTFIGHSDGCLAKDLVGYLKKCGMEVPQKLLDIAGKYVQYEEQRHLRRSWSGRSGRGFKRQKQDSPAPYQSSSW”, which “soluble on expression in E. coli” value is on record?
Its value is “not soluble”.

With “MAHHHHHHMIKLGNFAWQLLTRADGSNLGGVLRGSRKVCSLSVARLSKHPYKPKTKEVIHPHVTPPEFLSPSDCFEAKTDELQQYLPSNYYRTKWVESLRAGEHLGSDYPWNLLPHWKFWKKRKYNVVYGEVPWFVSKVKGVSYYQRLNVWMVQWVEEGVHRIRRFRCAFGVLQAKLAAEQFRRNLEESGRVDNRKSERQLRMDYIQKRDERLLRKKRYSKVSKGQF” as the sequence, how does the “soluble on expression in E. coli” value read?
The value was “not soluble”.

With “MAHHHHHHMITLQLEQHRQQLENELRKVQLQQAQQQQQLQHVQHHHNQHNQHQQQQQLQYQQSLPPVQTTMVTIDGRLYRMVSASSGEAFVNRGQPCRDLHFVDRSALVSDGSAGADGRTEAAAPQPSNHPGVCMPVSPQAELSPQQQQQHMIITVAGDRSALGETTSAAAAASLAKSSAPGTNVMLVMPTPSASHKVKYGY” as the sequence, how does the “soluble on expression in E. coli” value read?
The value was “soluble”.

Source: the DeepSol protein solubility set
